Results published in the Human Domainome abundance scans (Beltran et al. 2025).
± gives the uncertainty stated by the source.

Assay: abundance fitness (aPCA) (normalised: wild type 0, dead -1); higher = more abundant; growth selection in yeast, the domain comes from the species named
Conditions: Homo sapiens

Going from “DnaJ homolog subfamily B member 1 A51M, P25685” to “DnaJ homolog subfamily B member 1 A49W, P25685”, the abundance fitness rises from -1.1 ± 0.085 to -0.307 ± 0.088.

“DnaJ homolog subfamily B member 1 R26A, P25685” and “DnaJ homolog subfamily B member 1 Q7I, P25685” are within error of each other in abundance fitness: 0.056 ± 0.18 for the first, -0.144 ± 0.17 for the second.

“DnaJ homolog subfamily B member 1 K60P, P25685” and “DnaJ homolog subfamily B member 1 P58L, P25685” are within error of each other in abundance fitness: -0.352 ± 0.17 for the first, -0.163 ± 0.057 for the second.

“DnaJ homolog subfamily B member 1 Y52A, P25685” and “DnaJ homolog subfamily B member 1 E50C, P25685” are within error of each other in abundance fitness: -0.265 ± 0.083 for the first, -0.311 ± 0.095 for the second.

“DnaJ homolog subfamily B member 1 D53V, P25685” and “DnaJ homolog subfamily B member 1 Y5P, P25685” are within error of each other in abundance fitness: -0.013 ± 0.093 for the first, -0.232 ± 0.15 for the second.

“DnaJ homolog subfamily B member 1 S16N, P25685” and “DnaJ homolog subfamily B member 1 E38M, P25685” are within error of each other in abundance fitness: -0.059 ± 0.1 for the first, -0.041 ± 0.1 for the second.

“DnaJ homolog subfamily B member 1 Q27A, P25685” and “DnaJ homolog subfamily B member 1 H32D, P25685” are within error of each other in abundance fitness: -0.15 ± 0.11 for the first, -0.241 ± 0.23 for the second.

First: DnaJ homolog subfamily B member 1 A51C, P25685
Second: DnaJ homolog subfamily B member 1 P58T, P25685
The abundance fitness of the first is lower: -0.755 ± 0.18 for the first, -0.143 ± 0.14 for the second.

“DnaJ homolog subfamily B member 1 H32T, P25685” and “DnaJ homolog subfamily B member 1 I48M, P25685” are within error of each other in abundance fitness: -0.048 ± 0.072 for the first, -0.111 ± 0.099 for the second.

“DnaJ homolog subfamily B member 1 E62Y, P25685” and “DnaJ homolog subfamily B member 1 G40D, P25685” are within error of each other in abundance fitness: -0.552 ± 0.22 for the first, -0.301 ± 0.078 for the second.

“DnaJ homolog subfamily B member 1 G14V, P25685” and “DnaJ homolog subfamily B member 1 D57E, P25685” are within error of each other in abundance fitness: -0.241 ± 0.11 for the first, -0.269 ± 0.14 for the second.

Compared with “DnaJ homolog subfamily B member 1 G14Q, P25685”, “DnaJ homolog subfamily B member 1 D34V, P25685” is higher in abundance fitness: -0.251 ± 0.091 for the first, -0.022 ± 0.081 for the second.

“DnaJ homolog subfamily B member 1 E47N, P25685” and “DnaJ homolog subfamily B member 1 I63S, P25685” are within error of each other in abundance fitness: 0.333 ± 0.21 for the first, 0.108 ± 0.068 for the second.

“DnaJ homolog subfamily B member 1 R30I, P25685” and “DnaJ homolog subfamily B member 1 K21H, P25685” are within error of each other in abundance fitness: -0.036 ± 0.095 for the first, 0.006 ± 0.085 for the second.

“DnaJ homolog subfamily B member 1 S56H, P25685” and “DnaJ homolog subfamily B member 1 G10Q, P25685” are within error of each other in abundance fitness: -0.217 ± 0.16 for the first, -0.048 ± 0.083 for the second.

Going from “DnaJ homolog subfamily B member 1 P33I, P25685” to “DnaJ homolog subfamily B member 1 A51E, P25685”, the abundance fitness falls from -0.085 ± 0.097 to -0.718 ± 0.098.

Compared with “DnaJ homolog subfamily B member 1 E43A, P25685”, “DnaJ homolog subfamily B member 1 E18W, P25685” is lower in abundance fitness: 0.025 ± 0.13 for the first, -0.268 ± 0.061 for the second.

“DnaJ homolog subfamily B member 1 R25T, P25685” and “DnaJ homolog subfamily B member 1 P33H, P25685” are within error of each other in abundance fitness: -0.181 ± 0.11 for the first, -0.292 ± 0.15 for the second.

“DnaJ homolog subfamily B member 1 Q27K, P25685” and “DnaJ homolog subfamily B member 1 D17W, P25685” are within error of each other in abundance fitness: -0.021 ± 0.17 for the first, -0.142 ± 0.15 for the second.

First: DnaJ homolog subfamily B member 1 Y52R, P25685
Second: DnaJ homolog subfamily B member 1 Y52F, P25685
The abundance fitness of the first is lower: -0.305 ± 0.071 for the first, 0.076 ± 0.091 for the second.

Compared with “DnaJ homolog subfamily B member 1 L9A, P25685”, “DnaJ homolog subfamily B member 1 Q27R, P25685” is higher in abundance fitness: -0.892 ± 0.26 for the first, -0.215 ± 0.066 for the second.

“DnaJ homolog subfamily B member 1 A28W, P25685” and “DnaJ homolog subfamily B member 1 K37H, P25685” are within error of each other in abundance fitness: 0.024 ± 0.11 for the first, 0.05 ± 0.13 for the second.

“DnaJ homolog subfamily B member 1 Y52K, P25685” and “DnaJ homolog subfamily B member 1 A49H, P25685” are within error of each other in abundance fitness: -0.337 ± 0.13 for the first, -0.132 ± 0.18 for the second.

“DnaJ homolog subfamily B member 1 R59D, P25685” and “DnaJ homolog subfamily B member 1 H32M, P25685” are within error of each other in abundance fitness: 0.095 ± 0.21 for the first, 0.014 ± 0.089 for the second.

“DnaJ homolog subfamily B member 1 Y24E, P25685” and “DnaJ homolog subfamily B member 1 D57Y, P25685” are within error of each other in abundance fitness: -0.411 ± 0.1 for the first, -0.45 ± 0.11 for the second.

Compared with “DnaJ homolog subfamily B member 1 R26N, P25685”, “DnaJ homolog subfamily B member 1 K37L, P25685” is lower in abundance fitness: 0.102 ± 0.17 for the first, -0.286 ± 0.061 for the second.

“DnaJ homolog subfamily B member 1 K35C, P25685” and “DnaJ homolog subfamily B member 1 A49Q, P25685” are within error of each other in abundance fitness: -0.46 ± 0.11 for the first, -0.394 ± 0.086 for the second.

“DnaJ homolog subfamily B member 1 F45R, P25685” and “DnaJ homolog subfamily B member 1 A12V, P25685” are within error of each other in abundance fitness: -0.185 ± 0.062 for the first, -0.145 ± 0.08 for the second.

Compared with “DnaJ homolog subfamily B member 1 P39T, P25685”, “DnaJ homolog subfamily B member 1 D57W, P25685” is lower in abundance fitness: 0.133 ± 0.13 for the first, -0.812 ± 0.2 for the second.

First: DnaJ homolog subfamily B member 1 A51P, P25685
Second: DnaJ homolog subfamily B member 1 E19W, P25685
The abundance fitness of the first is higher: -0.488 ± 0.098 for the first, -1.25 ± 0.17 for the second.

Going from “DnaJ homolog subfamily B member 1 L55K, P25685” to “DnaJ homolog subfamily B member 1 A41W, P25685”, the abundance fitness rises from -0.781 ± 0.11 to -0.255 ± 0.064.

First: DnaJ homolog subfamily B member 1 D4L, P25685
Second: DnaJ homolog subfamily B member 1 L9H, P25685
The abundance fitness of the first is higher: -0.341 ± 0.23 for the first, -1.12 ± 0.12 for the second.

Going from “DnaJ homolog subfamily B member 1 A23K, P25685” to “DnaJ homolog subfamily B member 1 K21V, P25685”, the abundance fitness rises from -0.612 ± 0.11 to -0.078 ± 0.061.

Going from “DnaJ homolog subfamily B member 1 L9S, P25685” to “DnaJ homolog subfamily B member 1 A23G, P25685”, the abundance fitness rises from -0.681 ± 0.079 to -0.184 ± 0.08.

“DnaJ homolog subfamily B member 1 A41P, P25685” and “DnaJ homolog subfamily B member 1 E19T, P25685” are within error of each other in abundance fitness: -0.432 ± 0.11 for the first, -0.36 ± 0.073 for the second.

First: DnaJ homolog subfamily B member 1 A23H, P25685
Second: DnaJ homolog subfamily B member 1 K44P, P25685
The abundance fitness of the first is higher: -0.312 ± 0.14 for the first, -0.717 ± 0.096 for the second.

“DnaJ homolog subfamily B member 1 G14K, P25685” and “DnaJ homolog subfamily B member 1 E42I, P25685” are within error of each other in abundance fitness: -0.13 ± 0.093 for the first, -0.105 ± 0.12 for the second.

Going from “DnaJ homolog subfamily B member 1 A41K, P25685” to “DnaJ homolog subfamily B member 1 R61W, P25685”, the abundance fitness falls from -0.178 ± 0.092 to -0.897 ± 0.14.

First: DnaJ homolog subfamily B member 1 F45D, P25685
Second: DnaJ homolog subfamily B member 1 G10K, P25685
The abundance fitness of the first is lower: -0.352 ± 0.076 for the first, -0.108 ± 0.1 for the second.

“DnaJ homolog subfamily B member 1 I63W, P25685” and “DnaJ homolog subfamily B member 1 E62D, P25685” are within error of each other in abundance fitness: -0.277 ± 0.12 for the first, -0.31 ± 0.13 for the second.

“DnaJ homolog subfamily B member 1 T8D, P25685” and “DnaJ homolog subfamily B member 1 N36L, P25685” are within error of each other in abundance fitness: -0.101 ± 0.083 for the first, 0.009 ± 0.054 for the second.

Compared with “DnaJ homolog subfamily B member 1 G10V, P25685”, “DnaJ homolog subfamily B member 1 R30C, P25685” is higher in abundance fitness: -0.606 ± 0.087 for the first, 0.042 ± 0.16 for the second.

First: DnaJ homolog subfamily B member 1 E18M, P25685
Second: DnaJ homolog subfamily B member 1 A23D, P25685
The abundance fitness of the first is higher: -0.188 ± 0.074 for the first, -0.852 ± 0.22 for the second.

“DnaJ homolog subfamily B member 1 E62P, P25685” and “DnaJ homolog subfamily B member 1 Q7Y, P25685” are within error of each other in abundance fitness: -0.134 ± 0.079 for the first, 0.022 ± 0.13 for the second.

Going from “DnaJ homolog subfamily B member 1 L9K, P25685” to “DnaJ homolog subfamily B member 1 R13L, P25685”, the abundance fitness rises from -1.26 ± 0.23 to -0.191 ± 0.066.

“DnaJ homolog subfamily B member 1 D17E, P25685” and “DnaJ homolog subfamily B member 1 R25H, P25685” are within error of each other in abundance fitness: -0.095 ± 0.1 for the first, -0.047 ± 0.11 for the second.

Going from “DnaJ homolog subfamily B member 1 S56T, P25685” to “DnaJ homolog subfamily B member 1 A15K, P25685”, the abundance fitness falls from -0.111 ± 0.087 to -0.818 ± 0.096.

First: DnaJ homolog subfamily B member 1 Y52Q, P25685
Second: DnaJ homolog subfamily B member 1 R61F, P25685
The abundance fitness of the first is higher: -0.306 ± 0.11 for the first, -0.756 ± 0.18 for the second.

“DnaJ homolog subfamily B member 1 G14S, P25685” and “DnaJ homolog subfamily B member 1 E50H, P25685” are within error of each other in abundance fitness: -0.126 ± 0.042 for the first, -0.222 ± 0.17 for the second.

“DnaJ homolog subfamily B member 1 D17H, P25685” and “DnaJ homolog subfamily B member 1 Y52N, P25685” are within error of each other in abundance fitness: -0.182 ± 0.13 for the first, -0.195 ± 0.14 for the second.

First: DnaJ homolog subfamily B member 1 Y6M, P25685
Second: DnaJ homolog subfamily B member 1 R59F, P25685
The abundance fitness of the first is lower: -0.806 ± 0.11 for the first, -0.045 ± 0.15 for the second.

In the case of “DnaJ homolog subfamily B member 1 L11F, P25685”, the abundance fitness is reported as -0.949 ± 0.11.
